Measurements reported in patent US20140072613A1 (published 2014).

T1: GRK7(h) (human, UniProt Q8WTQ7 1-553)
T1 sequence (looked up): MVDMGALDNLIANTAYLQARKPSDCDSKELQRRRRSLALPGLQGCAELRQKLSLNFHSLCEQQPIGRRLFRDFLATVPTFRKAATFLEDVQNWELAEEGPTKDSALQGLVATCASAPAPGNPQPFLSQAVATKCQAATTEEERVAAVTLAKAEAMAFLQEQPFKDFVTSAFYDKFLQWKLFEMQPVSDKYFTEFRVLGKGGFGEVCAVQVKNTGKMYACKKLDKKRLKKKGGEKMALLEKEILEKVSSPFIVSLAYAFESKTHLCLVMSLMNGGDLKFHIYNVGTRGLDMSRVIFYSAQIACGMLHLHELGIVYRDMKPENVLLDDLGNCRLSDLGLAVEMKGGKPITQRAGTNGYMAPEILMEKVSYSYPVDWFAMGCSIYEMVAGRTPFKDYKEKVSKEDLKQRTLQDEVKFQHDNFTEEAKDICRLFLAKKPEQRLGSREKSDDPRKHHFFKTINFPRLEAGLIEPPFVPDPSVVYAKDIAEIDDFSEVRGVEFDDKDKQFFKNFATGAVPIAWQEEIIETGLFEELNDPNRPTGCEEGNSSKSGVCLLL

T2: TAO1(h) (human, UniProt Q7L7X3 1-314, limits assumed)
T2 sequence (looked up): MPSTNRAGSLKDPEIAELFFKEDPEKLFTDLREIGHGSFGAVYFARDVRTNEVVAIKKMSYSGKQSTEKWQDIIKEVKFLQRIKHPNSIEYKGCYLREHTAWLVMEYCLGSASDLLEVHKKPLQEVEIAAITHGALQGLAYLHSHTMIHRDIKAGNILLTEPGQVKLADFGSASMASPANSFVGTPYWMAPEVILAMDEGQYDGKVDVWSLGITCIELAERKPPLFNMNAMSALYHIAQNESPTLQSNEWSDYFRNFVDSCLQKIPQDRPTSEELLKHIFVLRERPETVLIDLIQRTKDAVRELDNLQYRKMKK

T3: PKCµ(h) (human, UniProt Q15139 1-912)
T3 sequence (looked up): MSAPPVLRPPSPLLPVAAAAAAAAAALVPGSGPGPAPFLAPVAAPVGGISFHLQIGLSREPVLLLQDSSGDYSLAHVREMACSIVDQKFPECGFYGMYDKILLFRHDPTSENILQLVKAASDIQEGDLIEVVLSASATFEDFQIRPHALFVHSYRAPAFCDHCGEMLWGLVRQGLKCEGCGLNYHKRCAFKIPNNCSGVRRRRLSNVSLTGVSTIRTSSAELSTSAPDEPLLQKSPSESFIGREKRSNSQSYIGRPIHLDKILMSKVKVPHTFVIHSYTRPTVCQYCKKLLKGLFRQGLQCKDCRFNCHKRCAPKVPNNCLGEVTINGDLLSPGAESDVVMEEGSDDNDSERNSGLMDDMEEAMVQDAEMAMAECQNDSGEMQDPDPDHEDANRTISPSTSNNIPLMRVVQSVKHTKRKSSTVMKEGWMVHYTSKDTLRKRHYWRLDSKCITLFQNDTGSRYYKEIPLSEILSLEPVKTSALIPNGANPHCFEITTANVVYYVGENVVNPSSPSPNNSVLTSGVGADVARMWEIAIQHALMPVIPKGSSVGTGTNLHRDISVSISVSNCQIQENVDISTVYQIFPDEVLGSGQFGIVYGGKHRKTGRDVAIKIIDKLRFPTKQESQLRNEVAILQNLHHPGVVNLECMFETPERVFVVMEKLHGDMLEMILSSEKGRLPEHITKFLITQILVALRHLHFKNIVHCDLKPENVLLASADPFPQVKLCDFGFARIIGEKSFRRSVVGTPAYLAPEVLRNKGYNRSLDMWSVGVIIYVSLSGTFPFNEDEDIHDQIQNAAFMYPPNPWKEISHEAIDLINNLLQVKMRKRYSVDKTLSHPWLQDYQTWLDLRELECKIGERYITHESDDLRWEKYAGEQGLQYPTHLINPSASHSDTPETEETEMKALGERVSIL

T4: EphB3(h) (human, UniProt P54753 581-998, limits assumed)
T4 sequence (looked up): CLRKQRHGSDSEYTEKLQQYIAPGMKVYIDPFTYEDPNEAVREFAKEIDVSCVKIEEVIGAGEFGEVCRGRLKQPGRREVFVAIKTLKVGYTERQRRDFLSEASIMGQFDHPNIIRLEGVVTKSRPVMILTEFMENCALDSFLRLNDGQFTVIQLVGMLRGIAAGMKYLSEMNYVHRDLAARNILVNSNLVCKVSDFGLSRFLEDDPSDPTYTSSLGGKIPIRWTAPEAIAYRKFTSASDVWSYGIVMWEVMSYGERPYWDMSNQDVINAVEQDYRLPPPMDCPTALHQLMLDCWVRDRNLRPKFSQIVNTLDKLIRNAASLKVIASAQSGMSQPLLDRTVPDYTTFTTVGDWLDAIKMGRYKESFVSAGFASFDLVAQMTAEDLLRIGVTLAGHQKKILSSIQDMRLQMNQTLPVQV

T5: Fms(Y969C)(h) (human, UniProt P07333 538-972, limits assumed)
T5 sequence (looked up): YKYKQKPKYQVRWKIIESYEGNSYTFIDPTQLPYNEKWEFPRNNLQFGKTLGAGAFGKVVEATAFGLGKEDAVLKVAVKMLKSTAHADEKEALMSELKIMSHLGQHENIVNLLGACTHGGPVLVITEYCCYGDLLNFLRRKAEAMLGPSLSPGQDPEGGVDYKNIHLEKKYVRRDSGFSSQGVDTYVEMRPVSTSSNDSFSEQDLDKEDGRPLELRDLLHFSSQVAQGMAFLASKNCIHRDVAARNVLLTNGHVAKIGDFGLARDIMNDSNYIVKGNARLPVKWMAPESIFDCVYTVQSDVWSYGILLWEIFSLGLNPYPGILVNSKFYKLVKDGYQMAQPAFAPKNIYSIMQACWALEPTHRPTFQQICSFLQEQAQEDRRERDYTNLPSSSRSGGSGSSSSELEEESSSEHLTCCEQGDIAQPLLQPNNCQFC


Assays:
Assay in all cases: cell-based or functional assay
[1] = molecular target: MAPK1(h) (human, UniProt P28482 1-360, limits assumed)
[2] = molecular target: T1, GRK7(h)
[3] = molecular target: PKBβ(h) (human, UniProt P31751 1-481, limits assumed)
[4] = molecular target: T2, TAO1(h)
[5] = molecular target: SRPK1(h) (human, UniProt Q96SB4 1-655)
[6] = molecular target: MLCK(h) (human)
[7] = molecular target: T3, PKCµ(h)
[8] = molecular target: T4, EphB3(h)
[9] = molecular target: T5, Fms(Y969C)(h)

PKBβ(h), sequence (P31751 whole entry): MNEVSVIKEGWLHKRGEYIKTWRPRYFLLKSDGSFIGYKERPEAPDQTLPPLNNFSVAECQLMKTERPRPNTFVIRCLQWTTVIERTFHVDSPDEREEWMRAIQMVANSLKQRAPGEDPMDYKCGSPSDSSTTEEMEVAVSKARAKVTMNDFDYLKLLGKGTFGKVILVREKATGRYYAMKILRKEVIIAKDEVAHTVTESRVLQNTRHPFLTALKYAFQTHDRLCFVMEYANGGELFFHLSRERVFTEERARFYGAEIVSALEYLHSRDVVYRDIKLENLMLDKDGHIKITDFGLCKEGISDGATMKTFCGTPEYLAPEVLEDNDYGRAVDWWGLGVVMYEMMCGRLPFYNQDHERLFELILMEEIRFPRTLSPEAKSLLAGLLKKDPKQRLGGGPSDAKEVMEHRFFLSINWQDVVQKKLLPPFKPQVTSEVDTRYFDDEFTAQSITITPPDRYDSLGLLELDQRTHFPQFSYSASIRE
MAPK1(h), sequence (P28482 whole entry): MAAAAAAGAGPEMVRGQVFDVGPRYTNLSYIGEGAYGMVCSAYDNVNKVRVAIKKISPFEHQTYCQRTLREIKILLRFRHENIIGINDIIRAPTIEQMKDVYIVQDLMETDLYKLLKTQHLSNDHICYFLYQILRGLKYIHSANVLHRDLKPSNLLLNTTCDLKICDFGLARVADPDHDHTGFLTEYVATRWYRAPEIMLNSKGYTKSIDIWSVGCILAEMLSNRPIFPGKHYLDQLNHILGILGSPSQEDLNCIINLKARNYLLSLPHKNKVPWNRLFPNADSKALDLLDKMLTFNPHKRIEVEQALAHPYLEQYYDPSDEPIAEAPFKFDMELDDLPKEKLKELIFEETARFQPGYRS
SRPK1(h), sequence (Q96SB4 whole entry): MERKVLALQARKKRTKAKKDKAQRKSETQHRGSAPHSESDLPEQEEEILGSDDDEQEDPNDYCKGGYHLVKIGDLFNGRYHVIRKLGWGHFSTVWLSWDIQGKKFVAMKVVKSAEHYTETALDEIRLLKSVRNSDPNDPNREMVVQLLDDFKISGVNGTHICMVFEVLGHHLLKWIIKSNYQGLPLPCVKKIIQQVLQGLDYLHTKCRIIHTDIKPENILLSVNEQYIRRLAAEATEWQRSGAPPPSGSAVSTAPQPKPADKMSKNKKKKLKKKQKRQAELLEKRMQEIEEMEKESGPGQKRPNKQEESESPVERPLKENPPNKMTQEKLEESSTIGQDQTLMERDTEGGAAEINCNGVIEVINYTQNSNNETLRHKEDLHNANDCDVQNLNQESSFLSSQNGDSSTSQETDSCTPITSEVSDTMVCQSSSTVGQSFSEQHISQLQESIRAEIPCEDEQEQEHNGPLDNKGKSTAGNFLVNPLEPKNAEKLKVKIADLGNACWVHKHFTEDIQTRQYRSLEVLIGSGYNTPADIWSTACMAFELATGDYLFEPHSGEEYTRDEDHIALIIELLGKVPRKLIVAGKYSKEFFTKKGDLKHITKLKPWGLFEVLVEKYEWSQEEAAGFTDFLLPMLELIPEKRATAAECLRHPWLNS

| Binder | % activity, 100 µM [1] [%] | % activity, 100 µM [2] [%] | % activity, 100 µM [3] [%] | % activity, 100 µM [4] [%] | % activity, 100 µM [5] [%] | % activity, 100 µM [6] [%] | % activity, 100 µM [7] [%] | % activity, 100 µM [8] [%] | % activity, 100 µM [9] [%] |
| --- | --- | --- | --- | --- | --- | --- | --- | --- | --- |
| KAFAKLAARLYRKALARQLGVAA [MMI-0400] | 100 | 100 | 98 | 73 | 96 | 1 | 14 | 47 | 91 |
| FAKLAARLYRKALARQLGVAA [MMI-0300] | 107 | 122 | 84 | 82 | 90 | 2 | 22 | 62 | 72 |
